Drawing on patent US20210238260A1, this text covers IC50, Kd and K0.5 (nM), inhibition of FIXa by AT-III/UFH for three substances.

Test [1] deals with antithrombin III (plasma purified human AT-III, Molecular Innovations) (human) (UniProt P01008). The test is described as follows: AT-III/UFH inhibition of FIXa cleavage of Mesyl-D-CHG-Gly-Arg-AMC; K0.5 = AT-III conc. for 50% inhibition (AT-III varied).
Test [2] concerns the target Factor VIIIa (recombinant FVIII, Kogenate FS, activated with alpha-thrombin) (UniProt P00451). The test is described as follows: apparent functional KD (KD-app): FXa generation by FIXa with FVIIIa titrated, PC/PS vesicles, saturating FX, fluorogenic Spectrafluor FXa.
Test [3] concerns the target plasma purified human antithrombin III (AT-III), in complex with unfractionated heparin (UFH) (human) (UniProt P01008). The test is described as follows: K0.5: AT-III conc. (with UFH) for 50% inhibition of FIXa cleavage of Mesyl-D-CHG-Gly-Arg-AMC.
The target in another test is FIXa R312Y (human) (UniProt P00740). The test is described as follows: cell-based or functional assay.
Another test addresses FIXa K413N (human) (UniProt P00740). The test is described as follows: cell-based or functional assay.
A further test deals with FIXa V202M (human) (UniProt P00740). The test is described as follows: cell-based or functional assay.
The target of the next test is FIXa F314N/H315S (human) (UniProt P00740). The test is described as follows: cell-based or functional assay.
A further test deals with FIXa K400E/R403E (human) (UniProt P00740). The test is described as follows: cell-based or functional assay.
The target in test [4] is FIXa A103N/N105S/K247N/N249S (human) (UniProt P00740). The test is described as follows: cell-based or functional assay.
In a further test the target is FIXa E410N (human) (UniProt P00740). The test is described as follows: cell-based or functional assay.
A further test concerns the target FIXa T241N/H243S (human) (UniProt P00740). The test is described as follows: cell-based or functional assay.
The target in the next test is FIXa R318E (human) (UniProt P00740). The test is described as follows: cell-based or functional assay.
The target of test [5] is FIXa D85N/D104N/K106S/I251S (human) (UniProt P00740). The test is described as follows: cell-based or functional assay.
The target of another test is FIXa D203M (human) (UniProt P00740). The test is described as follows: cell-based or functional assay.
In a further test the target is FIXa R318A (human) (UniProt P00740). The test is described as follows: cell-based or functional assay.
The target of test [6] is FIXa D104N/K106S/Y155F/K247N/N249S (human) (UniProt P00740). The test is described as follows: cell-based or functional assay.
The target of the next test is FIXa E239N (human) (UniProt P00740). The test is described as follows: cell-based or functional assay.
The target in another test is FIXa D203Y (human) (UniProt P00740). The test is described as follows: cell-based or functional assay.
The target in the next test is FIXa R318N/A320S (human) (UniProt P00740). The test is described as follows: cell-based or functional assay.
For a further test, the target named is FIXa Y155F/N260S (human) (UniProt P00740). The test is described as follows: cell-based or functional assay.
The target of test [7] is FIXa D104N/K106S/Y155F/N260S (human) (UniProt P00740). The test is described as follows: cell-based or functional assay.
The target of a further test is FIXa N260S (human) (UniProt P00740). The test is described as follows: cell-based or functional assay.
Test [8] addresses FIXa Y155F/K247N/N249S (human) (UniProt P00740). The test is described as follows: cell-based or functional assay.
For test [9], the target named is FIXa A103N/N105S/I251S (human) (UniProt P00740). The test is described as follows: cell-based or functional assay.
Another test has as its target FIXa R403A (human) (UniProt P00740). The test is described as follows: cell-based or functional assay.
For the next test, the target named is FIXa Y284N (human) (UniProt P00740). The test is described as follows: cell-based or functional assay.
The next test concerns the target FIXa R318Y (human) (UniProt P00740). The test is described as follows: cell-based or functional assay.
The target of test [10] is FIXa D104N/K106S/N260S (human) (UniProt P00740). The test is described as follows: cell-based or functional assay.
A further test addresses FIXa A204M (human) (UniProt P00740). The test is described as follows: cell-based or functional assay.
For a further test, the target named is FIXa K400A/R403A (human) (UniProt P00740). The test is described as follows: cell-based or functional assay.

Chain of Factor VIIIa (recombinant FVIII, Kogenate FS, activated with alpha-thrombin) (P00451 other isoform, or with tags, fused parts or gaps limits assumed): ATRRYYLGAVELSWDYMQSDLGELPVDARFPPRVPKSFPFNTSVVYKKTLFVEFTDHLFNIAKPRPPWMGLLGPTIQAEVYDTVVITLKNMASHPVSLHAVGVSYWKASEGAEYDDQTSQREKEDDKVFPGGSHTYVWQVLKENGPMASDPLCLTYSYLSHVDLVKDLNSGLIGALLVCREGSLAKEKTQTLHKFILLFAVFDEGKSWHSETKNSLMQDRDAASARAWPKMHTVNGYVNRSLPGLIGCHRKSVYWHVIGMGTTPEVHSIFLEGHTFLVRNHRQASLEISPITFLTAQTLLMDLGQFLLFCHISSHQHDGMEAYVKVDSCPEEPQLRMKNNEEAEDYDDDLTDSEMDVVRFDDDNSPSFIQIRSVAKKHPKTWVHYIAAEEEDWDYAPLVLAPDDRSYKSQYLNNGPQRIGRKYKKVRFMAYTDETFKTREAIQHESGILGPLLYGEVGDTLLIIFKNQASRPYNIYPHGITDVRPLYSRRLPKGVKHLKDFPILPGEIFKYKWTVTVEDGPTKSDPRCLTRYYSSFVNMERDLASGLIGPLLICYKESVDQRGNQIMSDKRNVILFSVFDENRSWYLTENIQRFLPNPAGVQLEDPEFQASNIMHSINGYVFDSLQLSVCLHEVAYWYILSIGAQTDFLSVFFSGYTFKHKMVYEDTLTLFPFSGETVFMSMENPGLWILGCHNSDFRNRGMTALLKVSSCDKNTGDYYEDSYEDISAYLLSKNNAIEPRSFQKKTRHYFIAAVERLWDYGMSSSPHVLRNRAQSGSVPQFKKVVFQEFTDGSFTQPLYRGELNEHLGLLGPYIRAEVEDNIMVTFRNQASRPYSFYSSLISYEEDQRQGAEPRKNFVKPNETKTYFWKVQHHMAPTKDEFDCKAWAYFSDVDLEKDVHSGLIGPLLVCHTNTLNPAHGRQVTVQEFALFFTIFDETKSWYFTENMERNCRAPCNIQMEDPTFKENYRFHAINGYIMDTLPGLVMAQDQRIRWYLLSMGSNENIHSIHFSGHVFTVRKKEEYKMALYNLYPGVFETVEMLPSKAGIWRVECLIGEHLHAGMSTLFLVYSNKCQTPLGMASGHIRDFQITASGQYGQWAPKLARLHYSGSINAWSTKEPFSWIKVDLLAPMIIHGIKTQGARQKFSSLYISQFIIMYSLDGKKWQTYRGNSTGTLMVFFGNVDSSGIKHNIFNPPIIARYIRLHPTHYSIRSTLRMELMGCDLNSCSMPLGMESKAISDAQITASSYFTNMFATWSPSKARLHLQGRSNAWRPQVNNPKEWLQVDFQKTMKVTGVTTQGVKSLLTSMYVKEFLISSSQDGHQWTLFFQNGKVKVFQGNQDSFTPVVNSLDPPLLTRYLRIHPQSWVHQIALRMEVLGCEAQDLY

The substance “Plasma Purified FIXa (Haematologic Technologies, Inc.) (from UniProt P00740 47-191; P00740 227-461) (enzyme)” came in with an IC50 in test [1] of 30 nM.

In the case of “Plasma Purified FIXa (from UniProt P00740 47-191; P00740 227-461) (enzyme)”, in test [2], the Kd stood at 102 nM. For the same substance, in [3], the IC50 is 30 nM.

“plasma purified human AT-III (antithrombin III), in complex with full-length unfractionated heparin (from UniProt P01008 33-464)”: the K0.5 (nM), inhibition of FIXa by AT-III/UFH in the test with FIXa R312Y (human) is 2500 nM; with FIXa K413N (human) it was 27 nM; with FIXa V202M (human), 14 nM; with FIXa F314N/H315S (human) it was 104 nM; with FIXa K400E/R403E (human), more than 999 nM; in [4] it was 53 nM. The K0.5 (nM), inhibition of FIXa by AT-III/UFH is 9 nM with FIXa E410N (human); 21 nM with FIXa T241N/H243S (human); more than 10000 nM in the test with FIXa R318E (human); 28 nM in test [5]; 11 nM with FIXa D203M (human); 4140 nM in the test with FIXa R318A (human). In addition, the K0.5 (nM), inhibition of FIXa by AT-III/UFH in test [6] was 27 nM; with FIXa E239N (human), 132 nM; in the test with FIXa D203Y (human), 16 nM; in the test with FIXa R318N/A320S (human), more than 999 nM; with FIXa Y155F/N260S (human), 77 nM; in test [7], 292 nM. Also, the K0.5 (nM), inhibition of FIXa by AT-III/UFH with FIXa N260S (human) came to 312 nM; in test [8], 13 nM; in [9], 42 nM; with FIXa R403A (human), 190 nM; with FIXa Y284N (human), 41 nM; in the test with FIXa R318Y (human) it was 1980 nM. In addition, the K0.5 (nM), inhibition of FIXa by AT-III/UFH is 228 nM in [10], 29 nM in the test with FIXa A204M (human) and more than 999 nM with FIXa K400A/R403A (human).

One may read the IC50 as the midpoint of a concentration-inhibition curve.
